Reference: patent US20240116985A1 (published 2024)
Starred links: 1 amine or outer side, 2 acyl side, 3 side chain; linkers in the order of their positions; H or OH if unused. Positions of bridges follow the written chain, without caps; N, C: chain ends. Non-standard residues stand in square brackets, D forms with d. Primed or numbered codes have the meaning given here. B5(26) = 2-amino-2-(pent-4-en-1-yl)hept-6-enoic acid (bis-pentenylglycine), stitching residue carrying two staples, C=CCCCC(CCCC=C)(N[*:1])C(=O)[*:2]; B5(16) = 2-amino-2-(pent-4-en-1-yl)hept-6-enoic acid = 2,2-bis(4-pentenyl)glycine (stitching residue), C=CCCCC(CCCC=C)(N[*:1])C(=O)[*:2]; B5(24) = 2-amino-2-(pent-4-en-1-yl)hept-6-enoic acid, 2,2-bis(4-pentenyl)glycine (stitching residue), C=CCCCC(CCCC=C)(N[*:1])C(=O)[*:2]; B5(21) = 2-amino-2-(pent-4-en-1-yl)hept-6-enoic acid, bis(4-pentenyl)glycine (stitching residue), C=CCCCC(CCCC=C)(N[*:1])C(=O)[*:2]; B5(9) = 2-amino-2-(pent-4-en-1-yl)hept-6-enoic acid (2,2-bis(4-pentenyl)glycine), C=CCCCC(CCCC=C)(N[*:1])C(=O)[*:2]; Phe(2-Cl) = N[C@@H](Cc1ccccc1Cl)C(=O)O; Phe(2-OMe) = COc1ccccc1C[C@H](N)C(=O)O; Phe(3-F) = N[C@@H](Cc1cccc(F)c1)C(=O)O; Phe(2-F) = N[C@@H](Cc1ccccc1F)C(=O)O; Bta = N[C@@H](Cc1csc2ccccc12)C(=O)O; His(π-Me) = Cn1cncc1C[C@H](N)C(=O)O; αAllylPro = C=CC[C@@]1(C(=O)O)CCCN1; 2Thi = N[C@@H](Cc1cccs1)C(=O)O; S8 = C=CCCCCCC[C@](C)(N)C(=O)O

B1: I-638 (peptide)
peptide: XDIXDEAAFQXFXP
modifications: not fully specified; As printed: Ac-PL3-Asp-Ile-B5-Asp-Glu-Ala-Ala-Phe-Gln-S8-Phe-BztA-Pro-NH2; N-terminal Ac, C-terminal NH2; PL3 (1), B5 (4), S8 (11), BztA (13); staples PL3-B5 and B5-S8 by olefin metathesis
notes: Stapled peptide composition; also called Ac-PL3-Asp-Ile-B5-Asp-Glu-Ala-Ala-Phe-Gln-S8-Phe-BztA-Pro-NH2
B2: I-647 (peptide)
peptide: Ac-[αAllylPro]DI[B5(9)]DELAFQ[S8]F[Bta]Q-NH2
modifications: staple 1-4, 4-11
notes: Stapled peptide composition; also called Ac-PL3-Asp-Ile-B5-Asp-Glu-Leu-Ala-Phe-Gln-S8-Phe-BztA-Gln-NH2
B3: I-651 (peptide)
peptide: Ac-[αAllylPro]DI[B5(16)]DESAFQ[S8]F[Bta]Q-NH2
modifications: staple 1-4, 4-11
notes: Stapled peptide composition; also called Ac-PL3-Asp-Ile-B5-Asp-Glu-Ser-Ala-Phe-Gln-S8-Phe-BztA-Gln-NH2
B4: I-650 (peptide)
peptide: Ac-[αAllylPro]DI[B5(16)]DEFAFQ[S8]F[Bta]Q-NH2
modifications: staple 1-4, 4-11
notes: Stapled peptide composition; also called Ac-PL3-Asp-Ile-B5-Asp-Glu-Phe-Ala-Phe-Gln-S8-Phe-BztA-Gln-NH2
B5: I-649 (peptide)
peptide: Ac-[αAllylPro]DI[B5(9)]DEFAFQ[S8]F[Bta]Q-NH2
modifications: staple 1-4, 4-11
notes: as for B4
B6: I-648 (peptide)
peptide: Ac-[αAllylPro]DI[B5(9)]DELAFQ[S8]F[Bta]Q-NH2
modifications: staple 1-4, 4-11
notes: as for B2
B7: I-640 (peptide)
peptide: XDIXDEAAFQXFXS
modifications: not fully specified; As printed: Ac-PL3-Asp-Ile-B5-Asp-Glu-Ala-Ala-Phe-Gln-S8-Phe-BztA-Ser-NH2; N-terminal Ac, C-terminal NH2; PL3 (1), B5 (4), S8 (11), BztA (13); staples PL3-B5 and B5-S8 by olefin metathesis
notes: Stapled peptide composition; also called Ac-PL3-Asp-Ile-B5-Asp-Glu-Ala-Ala-Phe-Gln-S8-Phe-BztA-Ser-NH2
B8: I-643 (peptide)
peptide: Ac-[αAllylPro]DI[B5(9)]DEAAFQ[S8]F[Bta]W-NH2
modifications: staple 1-4, 4-11
notes: Stapled peptide composition; also called Ac-PL3-Asp-Ile-B5-Asp-Glu-Ala-Ala-Phe-Gln-S8-Phe-BztA-Trp-NH2
B9: I-642 (peptide)
peptide: XDIXDEAAFQXFXT
modifications: not fully specified; As printed: Ac-PL3-Asp-Ile-B5-Asp-Glu-Ala-Ala-Phe-Gln-S8-Phe-BztA-Thr-NH2; N-terminal Ac, C-terminal NH2; PL3 (1), B5 (4), S8 (11), BztA (13); staples PL3-B5 and B5-S8 by olefin metathesis
notes: Stapled peptide composition; also called Ac-PL3-Asp-Ile-B5-Asp-Glu-Ala-Ala-Phe-Gln-S8-Phe-BztA-Thr-NH2
B10: I-644 (peptide)
peptide: Ac-[αAllylPro]DI[B5(9)]DEAAFQ[S8]F[Bta]W-NH2
modifications: staple 1-4, 4-11
notes: as for B8
B11: I-641 (peptide)
peptide: XDIXDEAAFQXFXT
modifications: not fully specified; As printed: Ac-PL3-Asp-Ile-B5-Asp-Glu-Ala-Ala-Phe-Gln-S8-Phe-BztA-Thr-NH2; N-terminal Ac, C-terminal NH2; PL3 (1), B5 (4), S8 (11), BztA (13); staples PL3-B5 and B5-S8 by olefin metathesis
notes: as for B9
B12: I-646 (peptide)
peptide: Ac-[αAllylPro]DI[B5(9)]DEAAFQ[S8]F[Bta]V-NH2
modifications: staple 1-4, 4-11
notes: Stapled peptide composition; also called Ac-PL3-Asp-Ile-B5-Asp-Glu-Ala-Ala-Phe-Gln-S8-Phe-BztA-Val-NH2
B13: I-645 (peptide)
peptide: Ac-[αAllylPro]DI[B5(9)]DEAAFQ[S8]F[Bta]V-NH2
modifications: staple 1-4, 4-11
notes: as for B12
B14: I-450 (peptide)
peptide: Ac-[αAllylPro]DA[B5(21)]DEAA[2Thi]Q[S8][Phe(3-F)]WQ-NH2
modifications: staple 1-4, 4-11
notes: Stapled (stitched) peptide with non-natural residues
B15: I-435 (peptide)
peptide: Ac-[αAllylPro]DA[B5(24)]DEAAFN[S8][Phe(2-Cl)][Bta]Q-NH2
modifications: staple 1-4, 4-11
notes: as for B14
B16: I-453 (peptide)
peptide: Ac-[αAllylPro]DA[B5(21)]DEAA[Phe(2-F)]N[S8]F[Bta]Q-NH2
modifications: staple 1-4, 4-11
notes: as for B14
B17: I-437 (peptide)
peptide: Ac-[αAllylPro]DA[B5(24)]DEAAFN[S8][Phe(2-OMe)][Bta]Q-NH2
modifications: staple 1-4, 4-11
notes: as for B14
B18: I-434 (peptide)
peptide: Ac-[αAllylPro]DA[B5(24)]DEAAFN[S8][Phe(2-F)][Bta]Q-NH2
modifications: staple 1-4, 4-11
notes: as for B14
B19: I-438 (peptide)
peptide: Ac-[αAllylPro]DA[B5(26)]DEAAFN[S8][His(π-Me)][Bta]Q-NH2
modifications: staple 1-4, 4-11
notes: as for B14

Target: T1, full-length beta-Catenin (Uniprot ID P35222) (Homo sapiens (Human), UniProt P35222 2-781)
T1 construct: Tags of the recombinant protein are not described for the FP assay; also called bCat; B-Catenin
T1 sequence: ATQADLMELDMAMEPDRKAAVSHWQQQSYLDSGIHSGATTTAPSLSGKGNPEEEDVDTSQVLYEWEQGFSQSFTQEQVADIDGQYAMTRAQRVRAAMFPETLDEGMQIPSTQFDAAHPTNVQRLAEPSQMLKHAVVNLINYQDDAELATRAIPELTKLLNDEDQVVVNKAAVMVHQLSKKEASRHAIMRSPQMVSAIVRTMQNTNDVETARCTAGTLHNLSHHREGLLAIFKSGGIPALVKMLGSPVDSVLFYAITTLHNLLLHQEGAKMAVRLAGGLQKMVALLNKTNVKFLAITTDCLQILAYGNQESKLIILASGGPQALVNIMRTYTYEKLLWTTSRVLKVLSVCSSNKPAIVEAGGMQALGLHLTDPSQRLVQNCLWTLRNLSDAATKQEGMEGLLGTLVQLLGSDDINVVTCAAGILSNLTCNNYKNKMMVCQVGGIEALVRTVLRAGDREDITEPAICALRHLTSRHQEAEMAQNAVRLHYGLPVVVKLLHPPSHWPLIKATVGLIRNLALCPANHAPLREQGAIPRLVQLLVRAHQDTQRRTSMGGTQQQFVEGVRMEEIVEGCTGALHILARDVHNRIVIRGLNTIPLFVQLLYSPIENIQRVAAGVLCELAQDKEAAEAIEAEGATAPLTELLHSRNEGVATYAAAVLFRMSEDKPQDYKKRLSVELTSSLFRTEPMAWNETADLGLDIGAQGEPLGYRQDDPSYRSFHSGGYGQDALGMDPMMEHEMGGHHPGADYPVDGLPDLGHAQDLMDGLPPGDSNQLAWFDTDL
Experiment: fluorescence polarization competition; full-length beta-catenin, competitor 5FAM-TCF4 10-53
Protocol: (§1) The plate was incubated protected from light for 60 minutes at 20° C. prior to read. Reads were performed on a CLARIOstar plate reader (BMG Labtech) in duplicate, and data were fitted to a 1:1 binding model with hill slope using an in-house script. All provided concentrations are final concentrations.

Row | Binder | IC50 [µM]
1 | B1 | 3.88
2 | B2 | 0.445
3 | B3 | 0.186
4 | B4 | 0.137
5 | B5 | 0.209
6 | B6 | 0.233
7 | B7 | 0.087
8 | B8 | 0.958
9 | B9 | 0.118
10 | B10 | 0.808
11 | B11 | 0.122
12 | B12 | 0.461
13 | B13 | 0.395

Target: T2, full-length beta-Catenin (Uniprot ID P35222) (Homo sapiens (Human), UniProt P35222 1-781)
T2 construct: The assay protocol says full-length beta-Catenin (Uniprot ID P35222); tags are not described; also called bCat; B-Catenin
T2 sequence: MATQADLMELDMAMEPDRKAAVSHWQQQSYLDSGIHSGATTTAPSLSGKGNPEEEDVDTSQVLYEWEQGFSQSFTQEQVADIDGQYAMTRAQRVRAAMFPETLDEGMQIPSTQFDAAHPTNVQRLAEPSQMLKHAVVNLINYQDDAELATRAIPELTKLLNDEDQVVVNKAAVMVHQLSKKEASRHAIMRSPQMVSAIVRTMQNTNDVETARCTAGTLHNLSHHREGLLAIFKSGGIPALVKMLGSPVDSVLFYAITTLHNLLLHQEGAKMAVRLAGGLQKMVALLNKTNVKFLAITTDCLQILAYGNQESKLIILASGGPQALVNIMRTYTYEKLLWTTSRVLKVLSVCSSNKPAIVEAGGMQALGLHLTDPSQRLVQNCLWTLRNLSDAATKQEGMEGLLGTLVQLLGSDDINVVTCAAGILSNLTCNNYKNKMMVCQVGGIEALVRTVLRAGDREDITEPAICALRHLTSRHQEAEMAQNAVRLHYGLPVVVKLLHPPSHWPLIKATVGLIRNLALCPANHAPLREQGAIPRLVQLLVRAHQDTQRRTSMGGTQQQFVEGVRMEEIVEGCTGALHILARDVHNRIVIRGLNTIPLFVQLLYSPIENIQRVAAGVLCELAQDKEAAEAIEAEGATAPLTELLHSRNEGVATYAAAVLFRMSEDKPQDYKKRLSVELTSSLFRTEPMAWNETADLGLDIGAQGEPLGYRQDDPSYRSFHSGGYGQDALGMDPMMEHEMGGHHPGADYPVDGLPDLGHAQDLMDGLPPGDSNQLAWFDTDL
Experiment: fluorescence polarization competition: full-length beta-catenin + 5FAM-TCF4(10-53) probe, peptide titrated
Protocol: as §1

Row | Binder | EC50 [µM]
14 | B14 | 3.72
15 | B15 | 0.07
16 | B16 | 1.55
17 | B17 | 0.026
18 | B18 | 0.0675
19 | B19 | 5
